B1: ALDH8A1 (parent)
chain: WSSRSPQERSRVLNQVADLLEQSL

Consider 94 variants from the supplement of paper PMC10567573.
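Further: lentivirally expressed fusions sorted by FACS into six bins by GFP to DsRed ratio, PSI derived from sequencing read proportions per bin multiplied by bin number.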

Variants of B1 are the subject of the data set. Kind of data set: protein stability index of a GFP-peptide fusion (GPS, HEK-293T) (PSI 1-6); higher = more stable. The conditions noted are these: c terminus: a fixed tail appended.
WSSRSPQERSRVLNQVNDLLEQSL [A17N]: the protein stability index turned out to be 3.3.
For the variant WSSRSPQERSRVLNQVGDLLEQSL [A17G], the protein stability index was determined as 3.47.
As to WSSRSPQERSRVLNQVFDLLEQSL [A17F], the protein stability index turned out to be 2.58.
For the variant WSSRSPQERSRVLNQVPDLLEQSL [A17P], the protein stability index was 3.53.
Consider WSSRSPQERSRVLNQVYDLLEQSL [A17Y], for which the protein stability index came out at 2.15.
As for WSSRSPQERSRVLNQVRDLLEQSL [A17R], the protein stability index worked out at 1.9.
WSSRSPQERSRVLNQVSDLLEQSL [A17S]: the protein stability index was determined as 3.02.
For WSSRSPQERSRVLNQVDDLLEQSL [A17D], the protein stability index was 3.87.
Consider WSSRSPQERSRVLNQVTDLLEQSL [A17T], for which the protein stability index came out at 3.1.
On to WSSRSPQERSRVLNQVQDLLEQSL [A17Q], for which the protein stability index stood at 2.5.
In the case of WSSRSPQERSRVLNQVLDLLEQSL [A17L], the protein stability index is 1.48.
For WSSRSPQERSRVLNQVWDLLEQSL [A17W], the protein stability index turned out to be 2.33.
WSSRSPQERSRVLNQVCDLLEQSL [A17C]: the protein stability index amounted to 2.34.
On to WSSRSPQERSRVLNQVVDLLEQSL [A17V], for which the protein stability index worked out at 2.69.
To WSSRSPQERSRVLNQVKDLLEQSL [A17K] belongs 3.17.
As for WSSRSPQERSRVLNQVEDLLEQSL [A17E], the protein stability index is 3.88.
With WSSRSPQERSRVLNQVIDLLEQSL [A17I], the protein stability index was 2.42.
WSSRSPQERSRVLNQVHDLLEQSL [A17H]: the protein stability index stood at 2.54.
For the variant WSSRSPQERSRVLNQVMDLLEQSL [A17M], the protein stability index turned out to be 1.85.
Consider WSSRSPQERSRVLNQVADLLEKSL [Q22K], for which the protein stability index was found to be 2.27.
With WSSRSPQERSRVLNQVADLLEWSL [Q22W], the protein stability index is 1.95.
Regarding WSSRSPQERSRVLNQVADLLEYSL [Q22Y], the protein stability index turned out to be 2.33.
As for WSSRSPQERSRVLNQVADLLELSL [Q22L], the figure is 1.65; as for WSSRSPQERSRVLNQVADLLEMSL [Q22M], 1.83; as for WSSRSPQERSRVLNQVADLLEFSL [Q22F], 1.93.
In the case of WSSRSPQERSRVLNQVADLLERSL [Q22R], the protein stability index amounted to 2.72.
In the case of WSSRSPQERSRVLNQVADLLEESL [Q22E], the protein stability index is 2.88.
Regarding WSSRSPQERSRVLNQVADLLEASL [Q22A], the protein stability index stood at 2.22.
As to WSSRSPQERSRVLNQVADLLESSL [Q22S], the protein stability index came to 3.1.
Consider WSSRSPQERSRVLNQVADLLENSL [Q22N], for which the protein stability index amounted to 2.61.
Turning to WSSRSPQERSRVLNQVADLLETSL [Q22T], the protein stability index is 2.53.
For WSSRSPQERSRVLNQVADLLEHSL [Q22H], the protein stability index was determined as 3.34.
Regarding WSSRSPQERSRVLNQVADLLEGSL [Q22G], the protein stability index was 2.98.
WSSRSPQERSRVLNQVADLLEVSL [Q22V]: the protein stability index is 1.91.
Turning to WSSRSPQERSRVLNQVADLLEPSL [Q22P], the protein stability index was 3.31.
For WSSRSPQERSRVLNQVADLLEDSL [Q22D], the protein stability index is 3.63.
On to WSSRSPQERSRVLNQVADLLECSL [Q22C], for which the protein stability index was found to be 1.68.
With WSSRSPQERSRVLNQVADLLEISL [Q22I], the protein stability index is 2.01.
WSSRSPQERSRVLNQVADLVEQSL [L20V]: the protein stability index was found to be 3.03.
On to WSSRSPQERSRVLNQVADLTEQSL [L20T], for which the protein stability index is 4.08.
On to WSSRSPQERSRVLNQVADLSEQSL [L20S], for which the protein stability index came to 3.96.
As for WSSRSPQERSRVLNQVADLQEQSL [L20Q], the protein stability index was 3.68.
To WSSRSPQERSRVLNQVADLKEQSL [L20K] belongs 4.64; to WSSRSPQERSRVLNQVADLMEQSL [L20M], 3.44.
Consider WSSRSPQERSRVLNQVADLGEQSL [L20G], for which the protein stability index was found to be 3.64.
With WSSRSPQERSRVLNQVADLYEQSL [L20Y], the protein stability index worked out at 3.37.
As for WSSRSPQERSRVLNQVADLFEQSL [L20F], the figure is 2.75.
For WSSRSPQERSRVLNQVADLREQSL [L20R], the protein stability index worked out at 3.5.
For the variant WSSRSPQERSRVLNQVADLCEQSL [L20C], the protein stability index was 3.45.
WSSRSPQERSRVLNQVADLPEQSL [L20P]: the protein stability index came out at 4.33.
Turning to WSSRSPQERSRVLNQVADLHEQSL [L20H], the protein stability index worked out at 3.86.
In the case of WSSRSPQERSRVLNQVADLWEQSL [L20W], the protein stability index is 2.82.
In the case of WSSRSPQERSRVLNQVADLEEQSL [L20E], the protein stability index worked out at 4.43.
Turning to WSSRSPQERSRVLNQVADLNEQSL [L20N], the protein stability index stood at 4.14.
For the variant WSSRSPQERSRVLNQVADLDEQSL [L20D], the protein stability index came to 4.64.
As for WSSRSPQERSRVLNQVADLAEQSL [L20A], the figure is 3.59; as for WSSRSPQERSRVLNQVADLIEQSL [L20I], 2.28; as for WSSRSPQERSRVLNQGADLLEQSL [V16G], 4.12.
As for WSSRSPQERSRVLNQQADLLEQSL [V16Q], the figure is 4.62; as for WSSRSPQERSRVLNQKADLLEQSL [V16K], 3.71; as for WSSRSPQERSRVLNQIADLLEQSL [V16I], 2.
Turning to WSSRSPQERSRVLNQRADLLEQSL [V16R], the protein stability index came to 3.9.
Take WSSRSPQERSRVLNQLADLLEQSL [V16L]: the protein stability index came out at 2.24.
WSSRSPQERSRVLNQFADLLEQSL [V16F]: the protein stability index came to 1.92.
On to WSSRSPQERSRVLNQMADLLEQSL [V16M], for which the protein stability index came to 2.7.
To WSSRSPQERSRVLNQYADLLEQSL [V16Y] belongs 2.29; to WSSRSPQERSRVLNQWADLLEQSL [V16W], 2.26; to WSSRSPQERSRVLNQSADLLEQSL [V16S], 3.99.
On to WSSRSPQERSRVLNQPADLLEQSL [V16P], for which the protein stability index was 3.62.
On to WSSRSPQERSRVLNQTADLLEQSL [V16T], for which the protein stability index was found to be 4.18.
For the variant WSSRSPQERSRVLNQNADLLEQSL [V16N], the protein stability index was determined as 4.2.
In the case of WSSRSPQERSRVLNQHADLLEQSL [V16H], the protein stability index was found to be 3.55.
For the variant WSSRSPQERSRVLNQVACLLEQSL [D18C], the protein stability index came to 2.03.
Turning to WSSRSPQERSRVLNQVAILLEQSL [D18I], the protein stability index was 1.76.
For WSSRSPQERSRVLNQVAQLLEQSL [D18Q], the protein stability index worked out at 1.59.
As for WSSRSPQERSRVLNQVAYLLEQSL [D18Y], the protein stability index was found to be 1.81.
Regarding WSSRSPQERSRVLNQVAKLLEQSL [D18K], the protein stability index came to 1.47.
For WSSRSPQERSRVLNQVALLLEQSL [D18L], the protein stability index was determined as 1.86.
Regarding WSSRSPQERSRVLNQVAGLLEQSL [D18G], the protein stability index was determined as 2.76.
WSSRSPQERSRVLNQVAFLLEQSL [D18F]: the protein stability index is 1.48.
Turning to WSSRSPQERSRVLNQVAPLLEQSL [D18P], the protein stability index came out at 3.02.
On to WSSRSPQERSRVLNQVARLLEQSL [D18R], for which the protein stability index was 2.34.
As for WSSRSPQERSRVLNQVASLLEQSL [D18S], the figure is 2.23; as for WSSRSPQERSRVLNQVANLLEQSL [D18N], 2.22.
As for WSSRSPQERSRVLNQVAHLLEQSL [D18H], the figure is 2.2.
As for WSSRSPQERSRVLNQVATLLEQSL [D18T], the protein stability index is 2.02.
For the variant WSSRSPQERSRVLNQVAVLLEQSL [D18V], the protein stability index worked out at 1.92.
As for WSSRSPQERSRVLNQVAMLLEQSL [D18M], the figure is 2.17; as for WSSRSPQERSRVLNQVAWLLEQSL [D18W], 1.37.
As to WSSRSPQERSRVLNQVAALLEQSL [D18A], the protein stability index amounted to 1.98.
With WSSRSPQERSRVLNQVADLLVQSL [E21V], the protein stability index is 2.17.
For WSSRSPQERSRVLNQVADLLSQSL [E21S], the protein stability index turned out to be 2.27.
As for WSSRSPQERSRVLNQVADLLFQSL [E21F], the figure is 2.47; as for WSSRSPQERSRVLNQVADLLLQSL [E21L], 2.11.
